{
  "source": "patent US8093030B2",
  "about": "“Thermostable viral polymerases and methods of use” (Lucigen Corporation, priority 2005, dated 2012)",
  "molecules": {"B1": {"name": "polymerase 3173 mutant D49A/F418Y: double mutant of polymerase 3173 with both a D49A and a F418Y mutation, SEQ ID NO:27 (protein)", "chain": "MGEDGLSLPKMMNTPKPILKPQPKALVEPVLCDSIDEIPAKYNEPVYFALETDEDRPVLASIYQPHFERKVYCLNLLKEKVARFKDWLLKFSEIRGWGLDFDLRVLGYTYEQLRNKKIVDVQLAIKVQHYERFKQGGTKGEGFRLDDVARDLLGIEYPMNKTKIRETFKNNMFHSFSNEQLLYASLDAYIPHLLYEQLTSSTLNSLVYQLDQQAQKVVIETSQHGMPVKLKALEEEIHRLTQLRSEMQKQIPFNYNSPKQTAKFFGVNSSSKDVLMDLALQGNEMAKKVLEARQIEKSLAFAKDLYDIAKRSGGRIYGNFFTTTAPSGRMSCSDINLQQIPRRLRSFIGFDTEDKKLITADFPQIELRLAGVIWNEPKFIEAFRQGIDLHKLTASILFDKNIEEVSKEERQIGKSANYGLIYGIAPKGFAEYCIANGINMTEEQAYEISQKVEEVLHKDCRQHQVAYERFKYNEYVDNETWLNRTYRAWKPQDLLNYQIQGSGAELFKKAIVLLKETKPDLKIVNLVHDEIVVEADSKEAQDLAKLIKEKMEEAWDWCLEKAEEFGNRVAKIKLEVEEPHVGNTWEKP"}},
  "key": {"[1]": {"test_system": "ROX-labeled primer annealed to single-stranded M13mp18 DNA", "test": "Fluorescent (ROX) primer extension in presence of ddNTPs", "type": "biochemical", "description": "In separate reactions, ddGTP, ddATP, ddTTP, and ddCTP were added to the above mix in concentrations of 50, 500 and 5000 μM each. Five units of polymerase 3173 mutant D49A were added and the reactions were incubated for 30 minutes at 70° C. Extension of the primer was detected by the ABI 310 Genetic Analyzer in Gene Scan mode."}, "activated ct DNA": {"test_system": "activated ct DNA", "test": "Inhibition of radioactive nucleotide incorporation by chain terminating analogs", "type": "biochemical", "conditions": "control, 40 μM each dNTP, 70° C. 30 min", "description": "Based on alignment with family A DNA polymerases, amino acid 418 of the polymerase 3173 mutant D49A was mutated from phenylalanine to tyrosine. The mutant protein was expressed and the cells lysed and heat-treated at 70° C. for 10 minutes to inactivate host proteins. The polymerase 3173 mutant D49A/F418Y was tested for inhibition of radioactive nucleotide incorporation using chain terminating nucleotide analogs in the same mix as unlabeled deoxynucleotides. […] In separate reactions both the D49A/F418Y mutant and purified polymerase 3173 mutant D49A were tested for inhibition by 4 mM each of ddNTPs and 4 mM each acycloNTPs. A control with no chain terminators was included. 50 μl reactions were incubated at 70° C. for 30 min. 15 μl of each reaction was spotted on DE81 paper, washed and counted, and units of activity were determined as described in Example 6. The degree of inhibition due to incorporation of dideoxy- and acyclo-nucleotides is tabulated below."}},
  "data": [
    {"molecule": "B1", "values": [
      {"measurement": "primer extension at 0.2× ratio of ddGTP:dGTP", "setting": "[1]; 0.2× ddGTP:dGTP", "result": "nearly complete inhibition of primer extension"},
      {"measurement": "discrimination against chain terminating nucleotides", "setting": "[1]; conclusion drawn from the extension/incorporation data", "result": "nearly zero"},
      {"measurement": "Activity, no terminators", "setting": "activated ct DNA", "result": 100.0, "unit": "%"}
    ]}
  ]
}
